To fix the notation:
T1: His–Orc1 (subunit of the insect cell–purified ORC) (budding yeast, UniProt P54784 1-914)
T1 construct: Orc1, budding yeast; Stood in the assays as a subunit of m16; source: Tnao38 insect cells, co-expressed with Orc2-6, purified as part of His–ORC
T1 sequence (looked up): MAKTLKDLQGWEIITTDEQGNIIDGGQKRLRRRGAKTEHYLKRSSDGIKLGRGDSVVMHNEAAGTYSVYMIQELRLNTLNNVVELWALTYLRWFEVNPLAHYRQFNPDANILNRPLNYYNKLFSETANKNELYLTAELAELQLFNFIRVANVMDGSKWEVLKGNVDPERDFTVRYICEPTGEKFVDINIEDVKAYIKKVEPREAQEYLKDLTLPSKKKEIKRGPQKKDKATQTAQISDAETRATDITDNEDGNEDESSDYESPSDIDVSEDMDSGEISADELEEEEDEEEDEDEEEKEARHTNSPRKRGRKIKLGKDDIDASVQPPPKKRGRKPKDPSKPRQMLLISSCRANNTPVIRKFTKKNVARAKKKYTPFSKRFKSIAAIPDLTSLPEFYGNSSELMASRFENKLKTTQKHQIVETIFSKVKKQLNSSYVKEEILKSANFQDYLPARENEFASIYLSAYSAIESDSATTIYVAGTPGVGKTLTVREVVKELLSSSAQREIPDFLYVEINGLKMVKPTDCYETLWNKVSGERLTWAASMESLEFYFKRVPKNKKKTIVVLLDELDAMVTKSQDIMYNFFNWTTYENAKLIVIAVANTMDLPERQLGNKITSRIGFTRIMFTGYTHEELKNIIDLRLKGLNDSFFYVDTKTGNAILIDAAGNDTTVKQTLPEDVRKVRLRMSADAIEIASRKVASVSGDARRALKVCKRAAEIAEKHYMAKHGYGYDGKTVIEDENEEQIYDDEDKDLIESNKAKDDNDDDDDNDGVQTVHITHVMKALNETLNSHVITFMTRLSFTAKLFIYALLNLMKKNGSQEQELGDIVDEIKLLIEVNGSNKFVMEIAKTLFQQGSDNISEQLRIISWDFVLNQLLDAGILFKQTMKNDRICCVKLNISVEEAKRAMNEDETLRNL

T2: 6xHis–Hop1 (budding yeast, UniProt P20050 1-605)
T2 construct: Hop1, HORMA domain protein, substrate of Pch2; source: E. coli BL21 RIPL, purified (TALON, heparin, SEC); not shown: 6xHis, N-terminal, kept
T2 sequence (looked up): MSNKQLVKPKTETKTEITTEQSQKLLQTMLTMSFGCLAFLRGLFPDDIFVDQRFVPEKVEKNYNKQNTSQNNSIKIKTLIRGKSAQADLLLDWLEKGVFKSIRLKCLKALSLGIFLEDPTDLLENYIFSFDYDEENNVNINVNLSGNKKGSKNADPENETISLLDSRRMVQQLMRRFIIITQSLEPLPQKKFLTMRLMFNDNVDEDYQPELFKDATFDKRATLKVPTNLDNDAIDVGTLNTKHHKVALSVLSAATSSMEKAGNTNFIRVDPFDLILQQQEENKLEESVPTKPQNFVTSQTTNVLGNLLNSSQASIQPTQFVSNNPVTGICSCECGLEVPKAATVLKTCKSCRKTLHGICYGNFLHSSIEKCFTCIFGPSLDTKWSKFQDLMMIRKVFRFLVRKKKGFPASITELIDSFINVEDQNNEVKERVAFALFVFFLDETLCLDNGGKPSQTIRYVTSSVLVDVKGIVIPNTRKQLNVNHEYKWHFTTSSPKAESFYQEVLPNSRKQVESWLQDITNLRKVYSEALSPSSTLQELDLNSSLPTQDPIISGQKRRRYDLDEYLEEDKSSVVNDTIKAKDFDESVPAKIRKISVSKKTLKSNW

B1: His–MBP–Pch2-2-144 (domain or fragment, budding yeast, UniProt P38126 2-144, looked up)
chain: SYIVDLQVRGSSLRVIKCMFREDEQISSLHSGSDSKQNSNKKLGEFLNLLKAVVKRKLESFPKDRLKTSIITGQELMREGQGSIEIKDPPTEAQQHLIRSLAKVLLHQFSSINGKVNTVNEGQDNLFLSLFVKKISIEQQSTS
notes: Pch2, budding yeast, part of the NH2-terminal domain; Monomer by SEC; also called minimal NH2-terminal fragment of Pch2; source: Tnao38 insect cells (baculovirus), purified (TALON, amylose, SEC); not shown: His, N-terminal, kept; MBP, N-terminal, kept
B2: Orc5 (subunit of the insect cell–purified ORC) (natural protein, budding yeast, UniProt P50874 1-479, looked up)
chain: MNVTTPEVAFREYQTNCLASYISADPDITPSNLILQGYSGTGKTYTLKKYFNANPNLHAVWLEPVELVSWKPLLQAIARTVQYKLKTLYPNIPTTDYDPLQVEEPFLLVKTLHNIFVQYESLQEKTCLFLILDGFDSLQDLDAALFNKYIKLNELLPKDSKINIKFIYTMLETSFLQRYSTHCIPTVMFPRYNVDEVSTILVMSRCGELMEDSCLRKRIIEEQITDCTDDQFQNVAANFIHLIVQAFHSYTGNDIFALNDLIDFKWPKYVSRITKENIFEPLALYKSAIKLFLSTDDNLSENGQGESAITTNRDDLENSQTYDLSIISKYLLIASYICSYLEPRYDASIFSRKTRIIQGRAAYGRRKKKEVNPRYLQPSLFAIERLLAIFQAIFPIQGKAESGSLSALREESLMKANIEVFQNLSELHTLKLIATTMNKNIDYLSPKVRWKVNVPWEIIKEISESVHFNISDYFSDIHE
notes: Orc5, budding yeast; Stood in the assays as a subunit of m16; source: Tnao38 insect cells, co-expressed, purified as part of His–ORC
B3: His–MBP–Pch2 (natural protein, budding yeast, UniProt P38126 1-564, looked up)
chain: MSYIVDLQVRGSSLRVIKCMFREDEQISSLHSGSDSKQNSNKKLGEFLNLLKAVVKRKLESFPKDRLKTSIITGQELMREGQGSIEIKDPPTEAQQHLIRSLAKVLLHQFSSINGKVNTVNEGQDNLFLSLFVKKISIEQQSTSHVSIKLNFHEKINLGQHIDSILDSEETNESDTYHMGSVDEFIIYPFCCLEEQDELKNGSILSTEFDKIDLELDEDDGFEGETLNNCINSVGNFDIPLSKQTLNLVNISYLPGTTFEGQWESLYFGNNIKERLYSYATISLKIARFKQTGDSNQEDITTLITNNKLLLVHGPPGTGKTTLCKALCQKLSVRREFSDGSDTIDTNYKGIIIELSCARIFSKWFGESSKNISIVFKDIEELLKVNEGRGIFICLLIDEVEAIASSRTNLSSRNESTDGIRVVNTLLTQLDRLKKYHNFLALATSNLLDSLDDAFVDRADGVFYVGNPTAEGILHILKVCIEEMITSGIILFHARSTGVKFFNKYQDILRKIAIKCSTVDISGRTIRKLPLMCLSEYFRTFPVDDDEFVLALAMSARKLSAARK
notes: Pch2, budding yeast; from codon-optimized cDNA in a pLIB–His–MBP vector; Apparent hexamer by SEC, with a minor fraction that appears monomeric; also called purified Pch2; full-length Pch2; source: Tnao38 insect cells (baculovirus), purified (TALON, amylose, SEC); not shown: His, N-terminal, kept; MBP, N-terminal, kept

The target in series [1] is T3, His–ORC (His–Orc1, Orc2-6) purified from insect cells (budding yeast, UniProt P54784 1-914; P32833 1-620; P54790 1-616; P54791 1-529; P50874 1-479; P38826 …, a fraction of Orc6 phosphorylated (double band, collapsed by λ-phosphatase); sites not stated).
T3 construct: Orc1, budding yeast; Orc2, budding yeast; Orc3, budding yeast; Orc4, budding yeast; Orc5, budding yeast; Orc6, budding yeast; Total size about 414 kD as printed; also called His–Orc1-6; origin recognition complex; source: Tnao38 insect cells coinfected with two baculoviruses, purified (His-tag resin, SEC); copies: + + + + +
The experiment in a line: pull-down; His–MBP–Pch2 (1 μM as hexamer) or fragments (6 μM of 2-144) on amylose beads, 1 μM ORC added, 90 min on ice; 30 mM HEPES pH 7.5, 150 mM NaCl, 10 mM imidazole, 0.1% Tween-20, 10 mM MgCl2; Coomassie staining or Western blot (α-MBP, α-ORC). As to conditions: both partners purified.

Series [2] addresses B3. The experiment in a line: cross-linking; XL-MS: 0.75 μM His–MBP–Pch2 with 1.5 μM His–ORC, 30 mM HEPES pH 7.5, 150 mM NaCl, 2 mM TCEP, 90 min at 4°C; 3 mM DSBU, 25°C, 1 h; MeroX, 2% FDR. As to conditions: both partners purified.
The target in series [3] is T1, His–Orc1 (subunit of the insect …). The description is as above. As to conditions: both partners purified.
Series [4] deals with T4, ORC (Orc1-6, with Orc1 carrying a CBP tag) purified from budding yeast (budding yeast, UniProt P54784 1-914; P32833 1-620; P54790 1-616; P54791 1-529; P50874 1-479; P38826 …).
T4 construct: Orc1, budding yeast; Orc2, budding yeast; Orc3, budding yeast; Orc4, budding yeast; Orc5, budding yeast; Orc6, budding yeast; also called budding yeast ORC (CBP–Orc1); budding yeast–purified ORC; source: purified from α-factor–arrested vegetative budding yeast cells (yGV3358), concentrated on calmodulin beads; copies: + + + + +
Description: pull-down; ORC from budding yeast bound to calmodulin beads, His–MBP–Pch2 added for 1 h on ice; 30 mM HEPES pH 7.5, 200 mM NaCl, 2 mM CaCl2; with or without MgCl2 and ADP, ATP or ATP analogs; Coomassie staining. As to conditions: both partners purified.

For series [5], the target named is T2, 6xHis–Hop1. The experiment in a line: pull-down; His–MBP–Pch2 (1 μM, as hexamer) on amylose beads, 6 μM Hop1 added, 90 min on ice; 50 mM Tris pH 7.5, 50 mM NaCl, 10 mM imidazole, 0.1% Tween-20, 1 mM MgCl2; with or without 200 μM ATP or ATPγS; Coomassie staining. The note with it: both partners purified.
Series [6] concerns the molecule itself. The experiment in a line: SEC; single purified proteins: His–MBP–Pch2 (2 μM), His–MBP–Pch2-243-564 (2 μM), His–MBP–Pch2-2-144 (6 μM; Superdex 200 5/150 GL); 30 mM HEPES pH 7.5, 150 mM NaCl, 3% glycerol, 2 mM TCEP, 1 mM MgCl2.
For series [7], the target named is T5, dephosphorylated His–ORC (λ-phosphatase treated) (budding yeast, UniProt P54784 1-914; P32833 1-620; P54790 1-616; P54791 1-529; P50874 1-479; P38826 …).
T5 construct: Orc1, budding yeast; as in m16; Orc2, budding yeast; Orc3, budding yeast; Orc4, budding yeast; Orc5, budding yeast; Orc6, budding yeast; as in m16, dephosphorylated (single band); also called dephosphorylated ORC; source: Tnao38 insect cells, purified, then treated with λ-phosphatase at 4°C overnight; copies: + + + + +
The experiment in a line: pull-down; His–MBP–Pch2 (1 μM as hexamer) or fragments (6 μM of 2-144) on amylose beads, 1 μM ORC added, 90 min on ice; 30 mM HEPES pH 7.5, 150 mM NaCl, 10 mM imidazole, 0.1% Tween-20, 10 mM MgCl2; Coomassie staining or Western blot (α-MBP, α-ORC). As to conditions: both partners purified. In general terms: In western blotting, separated proteins are transferred to a membrane and probed.

T3 sequence (P32833 whole entry, chain 2 of 4): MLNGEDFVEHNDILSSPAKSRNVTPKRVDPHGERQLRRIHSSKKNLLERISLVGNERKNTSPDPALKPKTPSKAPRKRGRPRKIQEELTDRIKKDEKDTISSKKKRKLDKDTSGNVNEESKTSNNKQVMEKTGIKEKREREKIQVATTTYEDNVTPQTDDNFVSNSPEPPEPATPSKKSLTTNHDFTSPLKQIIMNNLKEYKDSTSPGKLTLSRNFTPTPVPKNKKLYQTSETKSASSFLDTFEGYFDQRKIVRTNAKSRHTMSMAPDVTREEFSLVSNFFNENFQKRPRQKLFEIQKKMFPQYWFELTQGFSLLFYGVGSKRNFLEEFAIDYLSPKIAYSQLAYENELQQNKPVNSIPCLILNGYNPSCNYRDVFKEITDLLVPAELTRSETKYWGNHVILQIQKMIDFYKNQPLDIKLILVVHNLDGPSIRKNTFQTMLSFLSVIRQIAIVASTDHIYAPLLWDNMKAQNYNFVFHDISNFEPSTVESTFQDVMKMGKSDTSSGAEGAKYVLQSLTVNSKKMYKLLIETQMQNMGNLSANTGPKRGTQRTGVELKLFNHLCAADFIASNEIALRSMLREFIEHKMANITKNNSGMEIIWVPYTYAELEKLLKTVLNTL
T3 sequence (P54790 whole entry, chain 3 of 4): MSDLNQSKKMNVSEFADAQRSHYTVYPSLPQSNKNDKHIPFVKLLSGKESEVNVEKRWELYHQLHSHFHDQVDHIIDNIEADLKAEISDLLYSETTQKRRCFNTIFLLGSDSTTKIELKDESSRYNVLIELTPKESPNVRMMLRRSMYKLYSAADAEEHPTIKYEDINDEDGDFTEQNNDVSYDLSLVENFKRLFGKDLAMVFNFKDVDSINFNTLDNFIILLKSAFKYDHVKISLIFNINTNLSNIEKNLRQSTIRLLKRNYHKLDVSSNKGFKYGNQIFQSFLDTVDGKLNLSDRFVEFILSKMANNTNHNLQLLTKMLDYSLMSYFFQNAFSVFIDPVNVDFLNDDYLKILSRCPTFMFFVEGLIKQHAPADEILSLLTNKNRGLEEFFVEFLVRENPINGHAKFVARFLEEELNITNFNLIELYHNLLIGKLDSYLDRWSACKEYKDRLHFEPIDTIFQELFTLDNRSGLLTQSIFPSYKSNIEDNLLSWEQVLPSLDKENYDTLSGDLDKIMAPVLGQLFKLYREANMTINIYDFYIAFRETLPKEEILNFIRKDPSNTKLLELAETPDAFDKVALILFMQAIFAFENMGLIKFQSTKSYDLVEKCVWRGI
T3 sequence (P54791 whole entry, chain 4 of 4): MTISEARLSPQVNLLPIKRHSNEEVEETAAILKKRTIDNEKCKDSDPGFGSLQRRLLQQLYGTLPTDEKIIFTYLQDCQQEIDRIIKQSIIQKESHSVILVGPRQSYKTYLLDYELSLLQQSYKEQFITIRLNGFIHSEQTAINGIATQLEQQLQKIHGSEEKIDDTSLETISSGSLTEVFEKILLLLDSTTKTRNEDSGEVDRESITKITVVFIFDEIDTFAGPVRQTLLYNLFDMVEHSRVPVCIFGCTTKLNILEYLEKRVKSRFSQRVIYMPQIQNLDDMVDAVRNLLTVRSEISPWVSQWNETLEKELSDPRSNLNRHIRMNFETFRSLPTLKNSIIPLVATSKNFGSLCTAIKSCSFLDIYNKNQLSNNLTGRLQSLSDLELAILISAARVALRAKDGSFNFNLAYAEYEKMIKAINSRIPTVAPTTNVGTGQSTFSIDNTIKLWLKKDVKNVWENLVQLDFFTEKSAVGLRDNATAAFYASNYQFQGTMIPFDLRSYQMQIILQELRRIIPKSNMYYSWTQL
T3 sequence (P38826 whole entry, chain 6 of 4): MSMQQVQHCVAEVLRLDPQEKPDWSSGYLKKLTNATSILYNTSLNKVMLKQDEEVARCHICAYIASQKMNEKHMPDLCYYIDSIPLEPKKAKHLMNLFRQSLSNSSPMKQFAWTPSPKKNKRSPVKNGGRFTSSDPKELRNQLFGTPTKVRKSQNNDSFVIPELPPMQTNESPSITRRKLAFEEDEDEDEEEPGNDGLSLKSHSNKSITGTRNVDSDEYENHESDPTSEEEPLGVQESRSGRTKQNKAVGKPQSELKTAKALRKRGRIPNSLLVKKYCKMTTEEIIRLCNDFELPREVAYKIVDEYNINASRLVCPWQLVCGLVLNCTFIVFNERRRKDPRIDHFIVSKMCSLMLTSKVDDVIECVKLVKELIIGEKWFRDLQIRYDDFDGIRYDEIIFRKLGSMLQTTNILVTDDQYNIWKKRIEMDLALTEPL
T5 sequence (P32833 whole entry, chain 2 of 4): as the sequence (P32833 whole entry, chain 2 of 4) above
T5 sequence (P54790 whole entry, chain 3 of 4): as the sequence (P54790 whole entry, chain 3 of 4) above
T5 sequence (P54791 whole entry, chain 4 of 4): as the sequence (P54791 whole entry, chain 4 of 4) above
T5 sequence (P38826 whole entry, chain 6 of 4): as the sequence (P38826 whole entry, chain 6 of 4) above
T4 sequence (P32833 whole entry, chain 2 of 4): as the sequence (P32833 whole entry, chain 2 of 4) above
T4 sequence (P54790 whole entry, chain 3 of 4): as the sequence (P54790 whole entry, chain 3 of 4) above
T4 sequence (P54791 whole entry, chain 4 of 4): as the sequence (P54791 whole entry, chain 4 of 4) above
T4 sequence (P38826 whole entry, chain 6 of 4): as the sequence (P38826 whole entry, chain 6 of 4) above

B1: the binding result in series [1] is “binds”.

With B2, in series [2], the binding result is “binds”.

Consider B3, for which the binding result in series [3], in series [4], in series [5], in series [1] and in series [7] was “binds” each time. Further, the “stoichiometry N” value in series [6] turned out to be 6.

As usually defined, the stoichiometry N is a count of units in the complex or per binding partner.

(Values after PMC7442955, “Biochemical and functional characterization of a meiosis-specific Pch2/ORC AAA+ assembly” (Life Science Alliance, 2020).)
